Columns and labels:
Assay in all cases: SPR (Caterra or Biacore), antigen immobilized
HuCDCP1-A = target: T1, HuCDCP1-A (human, UniProt Q9H5V8 30-430)
T1 construct: range 30-430; expressed in HEK-293T, purified by Fc/his tag; also called human CDCP1-A; membrane-distal region of CDCP1; not shown: Fc or his tag
T1 sequence (looked up): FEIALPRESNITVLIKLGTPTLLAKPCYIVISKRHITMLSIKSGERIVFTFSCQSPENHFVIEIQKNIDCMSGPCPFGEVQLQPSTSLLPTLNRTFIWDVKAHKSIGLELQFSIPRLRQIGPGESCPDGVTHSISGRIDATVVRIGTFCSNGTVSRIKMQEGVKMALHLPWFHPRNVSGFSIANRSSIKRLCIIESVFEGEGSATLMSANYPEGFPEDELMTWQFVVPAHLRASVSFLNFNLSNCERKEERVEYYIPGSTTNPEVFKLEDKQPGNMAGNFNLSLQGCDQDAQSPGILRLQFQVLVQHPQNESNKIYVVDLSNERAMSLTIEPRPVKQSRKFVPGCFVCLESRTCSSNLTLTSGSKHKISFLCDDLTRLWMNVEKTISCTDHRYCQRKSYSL

MsCDCP1 = target: T2, MsCDCP1 (mouse, UniProt Q5U462 30-666)
T2 construct: extracellular domain; also called mouse CDCP1; not shown: Fc or his tag
T2 sequence (looked up): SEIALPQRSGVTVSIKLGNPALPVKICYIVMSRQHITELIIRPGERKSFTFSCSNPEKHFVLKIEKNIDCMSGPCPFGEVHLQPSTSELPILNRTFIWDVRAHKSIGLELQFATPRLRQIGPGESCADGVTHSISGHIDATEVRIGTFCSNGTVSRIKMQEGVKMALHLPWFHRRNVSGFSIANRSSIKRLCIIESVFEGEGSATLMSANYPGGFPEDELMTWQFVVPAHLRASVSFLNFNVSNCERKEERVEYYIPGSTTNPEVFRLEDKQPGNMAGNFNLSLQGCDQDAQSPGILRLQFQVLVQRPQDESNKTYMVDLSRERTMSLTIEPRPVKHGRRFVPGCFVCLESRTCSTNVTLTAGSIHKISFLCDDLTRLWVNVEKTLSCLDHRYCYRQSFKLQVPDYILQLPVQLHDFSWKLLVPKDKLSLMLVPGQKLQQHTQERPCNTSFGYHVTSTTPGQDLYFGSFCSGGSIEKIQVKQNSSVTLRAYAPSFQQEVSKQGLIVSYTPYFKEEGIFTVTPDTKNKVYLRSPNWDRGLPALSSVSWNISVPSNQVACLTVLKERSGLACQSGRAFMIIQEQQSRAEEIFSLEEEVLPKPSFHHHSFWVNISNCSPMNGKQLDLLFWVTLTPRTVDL

CynoCDCP1 = target: T3, CynoCDCP1 (Macaca fascicularis, UniProt A0A2K5VLA8 30-667)
T3 construct: extracellular domain; also called Macaca fascicularis CDCP1; monkey CDCP1; not shown: Fc or his tag
T3 sequence: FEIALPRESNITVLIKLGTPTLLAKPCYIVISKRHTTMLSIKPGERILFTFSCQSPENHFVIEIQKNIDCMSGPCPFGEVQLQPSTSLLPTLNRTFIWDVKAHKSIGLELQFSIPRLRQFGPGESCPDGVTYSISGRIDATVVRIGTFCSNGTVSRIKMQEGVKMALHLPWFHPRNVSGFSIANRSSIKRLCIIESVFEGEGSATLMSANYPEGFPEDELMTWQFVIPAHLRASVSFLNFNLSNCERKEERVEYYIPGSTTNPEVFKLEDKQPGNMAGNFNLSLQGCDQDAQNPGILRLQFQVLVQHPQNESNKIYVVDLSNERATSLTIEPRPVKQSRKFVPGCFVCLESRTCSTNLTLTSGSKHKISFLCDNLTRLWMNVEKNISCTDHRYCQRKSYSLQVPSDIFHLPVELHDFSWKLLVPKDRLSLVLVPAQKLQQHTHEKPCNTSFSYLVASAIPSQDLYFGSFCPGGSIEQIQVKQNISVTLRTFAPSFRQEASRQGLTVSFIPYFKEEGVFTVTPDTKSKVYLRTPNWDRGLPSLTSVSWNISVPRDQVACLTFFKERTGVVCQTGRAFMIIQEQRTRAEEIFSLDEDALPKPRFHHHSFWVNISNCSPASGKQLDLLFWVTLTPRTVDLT

HuCDCP1-C = target: T4, HuCDCP1-C (human, UniProt Q9H5V8 30-667)
T4 construct: range 30-667; expressed in HEK-293T, purified by Fc/his tag; also called human CDCP1-C; full-length extracellular domain of human CDCP1; not shown: Fc or his tag
T4 sequence (looked up): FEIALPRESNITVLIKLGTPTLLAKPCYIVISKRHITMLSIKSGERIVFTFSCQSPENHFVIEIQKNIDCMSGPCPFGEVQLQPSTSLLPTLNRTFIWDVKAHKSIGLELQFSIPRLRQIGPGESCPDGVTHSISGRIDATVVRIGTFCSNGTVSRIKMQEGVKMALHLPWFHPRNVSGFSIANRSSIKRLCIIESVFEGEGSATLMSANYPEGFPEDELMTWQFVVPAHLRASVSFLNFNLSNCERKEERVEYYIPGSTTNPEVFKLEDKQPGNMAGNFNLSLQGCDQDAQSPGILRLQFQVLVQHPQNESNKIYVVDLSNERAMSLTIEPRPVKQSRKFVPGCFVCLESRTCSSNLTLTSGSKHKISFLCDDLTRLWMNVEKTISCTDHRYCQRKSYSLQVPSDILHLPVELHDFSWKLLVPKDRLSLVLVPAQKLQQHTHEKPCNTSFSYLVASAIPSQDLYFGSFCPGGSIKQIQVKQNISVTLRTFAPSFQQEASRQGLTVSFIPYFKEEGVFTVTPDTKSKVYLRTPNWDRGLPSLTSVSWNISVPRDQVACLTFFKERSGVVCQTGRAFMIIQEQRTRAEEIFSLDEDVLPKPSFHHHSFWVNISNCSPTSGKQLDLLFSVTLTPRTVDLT

B1: 10D2 (antibody, V domains shown)
VH: EVQLQQSGPELKKPGETVKISCKASGYTFTDYSMHWVKQAPGKGLKWMGWINTETGQPTYADDFKGRFAFSLETSASSAYLQINNLKNEDTATYFCTRTFYYDYVGDYWGQGTTVTVSS
VL: DIVMTQSHKFMSTSVGDRVSITCKASQDVSTAVAWYRQKPGQSPKLLIYWASTRHTGVPDRLTGSGSGTDFALTINSVQAEDLALYYCQQHSSTPYTFGGGTKLEIK
notes: murine hybridoma mAb
EC50 (HuCDCP1-A): 0.747 nM | binding result (MsCDCP1): no binding (tested: 150 nM highest concentration) | EC50 (CynoCDCP1): 16.1 nM | EC50 (HuCDCP1-C): 0.705 nM

From patent US20260250410A1 (SICHUAN HUIYU PHARMACEUTICAL, published 2026)
